B1: human creatine kinase B subunit (wild-type) (enzyme)
chain: not shown
notes: One subunit (monomer) that associates into dimers; Tested in crude detergent extracts of transfected COS cells; also called B creatine kinase; B CK
B2: human creatine kinase M subunit (wild-type) (enzyme)
chain: not shown
notes: One subunit (monomer) that associates into dimers; Tested in crude detergent extracts of transfected COS cells; also called M creatine kinase; M CK

How the values were obtained:
[1] = target: the molecule itself; assay: nondenaturing electrophoresis of extracts of COS cells cotransfected with M, B and lys⁻M constructs
[2] = target: B2; assay: nondenaturing electrophoresis of extracts of COS cells cotransfected with all three constructs
[3] = target: the molecule itself; assay: nondenaturing electrophoresis of extracts of COS cells cotransfected with M, mutant M and B constructs (dimer formation)

| Binder | binding result [1] | binding result [2] | binding result [3] |
| --- | --- | --- | --- |
| B1 | binds | binds | – |
| B2 | – | – | binds |

From EP0571085A1 (BAYLOR COLLEGE OF MEDICINE, dated 1993)
